{
  "source": "paper doi:10.1101/517573",
  "binders": {"B1": {"name": "MBP-Sbh1 full length (natural protein)", "chain": "MSSPTPPGGQRTLQKRKQGSSQKVAASAPKKNTNSNNSILKIYSDEATGLRVDPLVVLFLAVGFIFSVVALHVISKVAGKLF"}},
  "molecular_target": "hSgt2 M233D (Homo sapiens) (UniProt O43765)",
  "sequence (O43765 213-313 M233D)": "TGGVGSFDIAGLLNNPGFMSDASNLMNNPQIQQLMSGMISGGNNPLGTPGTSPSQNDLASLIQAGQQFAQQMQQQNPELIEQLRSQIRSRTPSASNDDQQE",
  "test": "pull-down",
  "data": [
    {"binder": "B1", "values": [
      {"measurement": "percent reduction of binding against wild type", "result": 36, "unit": "%"}
    ]}
  ]
}
